Test results as given in US20260009052, “CAS12 PROTEINS AND USES THEREOF” (GUANGZHOU REFORGENE MEDICINE CO., LTD., published 2026).
Residue numbers refer to the chain shown, from its start.

Legend:
C12-279 Mut-03 = target: T1, C12-279 Mut-03 (synthetic construct, G184R,Q186R,D352R); test: cell_activity; PAM TTG
T1 chain: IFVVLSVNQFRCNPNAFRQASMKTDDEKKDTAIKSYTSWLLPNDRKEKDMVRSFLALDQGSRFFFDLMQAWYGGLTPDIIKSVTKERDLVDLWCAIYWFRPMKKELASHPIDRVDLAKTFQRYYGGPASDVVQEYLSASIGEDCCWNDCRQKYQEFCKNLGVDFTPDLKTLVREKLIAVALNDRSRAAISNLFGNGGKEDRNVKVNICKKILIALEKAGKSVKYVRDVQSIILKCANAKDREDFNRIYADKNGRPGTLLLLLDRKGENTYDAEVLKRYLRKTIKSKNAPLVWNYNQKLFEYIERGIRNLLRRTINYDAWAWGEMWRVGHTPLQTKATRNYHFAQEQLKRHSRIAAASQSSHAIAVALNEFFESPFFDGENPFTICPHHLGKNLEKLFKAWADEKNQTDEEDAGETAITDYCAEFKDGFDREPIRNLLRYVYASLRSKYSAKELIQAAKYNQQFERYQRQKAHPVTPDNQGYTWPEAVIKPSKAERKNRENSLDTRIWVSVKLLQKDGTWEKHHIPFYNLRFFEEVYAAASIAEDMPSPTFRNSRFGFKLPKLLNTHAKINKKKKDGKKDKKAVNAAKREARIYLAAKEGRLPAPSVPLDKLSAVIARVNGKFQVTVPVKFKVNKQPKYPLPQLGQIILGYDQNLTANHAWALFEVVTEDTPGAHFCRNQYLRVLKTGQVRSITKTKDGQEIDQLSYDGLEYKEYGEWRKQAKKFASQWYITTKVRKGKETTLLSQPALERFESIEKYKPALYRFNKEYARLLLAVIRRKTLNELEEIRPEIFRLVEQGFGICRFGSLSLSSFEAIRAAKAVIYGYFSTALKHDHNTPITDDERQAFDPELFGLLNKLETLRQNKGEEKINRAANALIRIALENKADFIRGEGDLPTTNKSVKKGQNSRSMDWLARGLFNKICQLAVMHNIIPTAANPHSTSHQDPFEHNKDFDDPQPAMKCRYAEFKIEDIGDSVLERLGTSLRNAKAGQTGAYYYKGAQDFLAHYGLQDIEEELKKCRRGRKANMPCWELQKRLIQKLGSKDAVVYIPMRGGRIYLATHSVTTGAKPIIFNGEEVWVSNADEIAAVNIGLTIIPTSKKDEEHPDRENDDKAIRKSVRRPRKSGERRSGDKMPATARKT
Protocol: (§1) Transfection: transfection was performed 12-14 h after plating. 1.5 μL PEI (Yeasen Biotechnology, 40815ES03, Polyethylenimine Linear (PEI) MW25000) and 500 ng mutation clone plasmid were added to 100 μL Opti-MEM per well of the 24-well plate, mixed, and added to the NAAN cell line for cell transfection after placing at room temperature for 20 min. After overnight transfection, a fresh culture medium was replaced, and the culture was continued for 72 h, followed by flow cytometry. Editing efficiencies of different mutant clones were characterized by the proportion of GFP-positive cells.
(§2) Editing efficiency of some selected mutants was tested in Reporter3 cell line using the same manner as described for the NAAN reporter system, except that the cell line was changed from NAAN cell line to Reporter3 cell line.

C12-279 Q186R (Mut-01) = target: T2, C12-279 Q186R (Mut-01) (synthetic construct, Q186R); test: cell_activity; PAM TTG; +/-0.32
T2 chain: T1 chain with R184G, R352D
Protocol: as §1, §2

B1: C12-279 Reporter3 sgRNA ; Reporter3 target (ssRNA ; dsDNA)
RNA: GUAAUGCGUCUCCCAUUGACGCCUCACCUCGCGACGCAAUGAUG
DNA 1: CTCACCTCGCGACGCAATGATG
DNA 2: CATCATTGCGTCGCGAGGTGAG
B1 was tested, and the binding signal (C12-279 Mut-03) was 2.28 fold of C12-279 and the binding signal (C12-279 Q186R (Mut-01)) was 1.6 fold of C12-279.
